Results on one substance are retold here after patent publication US20120100070A1.

This experiment has as its target GLP-1R-GFP stably expressed on HEK293 cells.

For the substance “GLP-1 (L-GLP-1, [Ala8]GLP-1-Ahx-Cys) (peptide)”, the EC50 of peptide triggered cyclic AMP (cAMP) accumulation was 5 nM.
